Measurements: patent US9790551B2, “Use of TRPC6 mRNA levels in peripheral blood cells for early detection/diagnosis of senile dementia” (Aging Wise Biotechnology, Inc., priority 2013, dated 2017)

B1: TRPC5: TRPC family member TRPC5, overexpressed from plasmid as comparison (protein, UniProt Q9UL62 1-973, looked up)
chain: MAQLYYKKVNYSPYRDRIPLQIVRAETELSAEEKAFLNAVEKGDYATVKQALQEAEIYYNVNINCMDPLGRSALLIAIENENLEIMELLLNHSVYVGDALLYAIRKEVVGAVELLLSYRRPSGEKQVPTLMMDTQFSEFTPDITPIMLAAHTNNYEIIKLLVQKRVTIPRPHQIRCNCVECVSSSEVDSLRHSRSRLNIYKALASPSLIALSSEDPILTAFRLGWELKELSKVENEFKAEYEELSQQCKLFAKDLLDQARSSRELEIILNHRDDHSEELDPQKYHDLAKLKVAIKYHQKEFVAQPNCQQLLATLWYDGFPGWRRKHWVVKLLTCMTIGFLFPMLSIAYLISPRSNLGLFIKKPFIKFICHTASYLTFLFMLLLASQHIVRTDLHVQGPPPTVVEWMILPWVLGFIWGEIKEMWDGGFTEYIHDWWNLMDFAMNSLYLATISLKIVAYVKYNGSRPREEWEMWHPTLIAEALFAISNILSSLRLISLFTANSHLGPLQISLGRMLLDILKFLFIYCLVLLAFANGLNQLYFYYETRAIDEPNNCKGIRCEKQNNAFSTLFETLQSLFWSVFGLLNLYVTNVKARHEFTEFVGATMFGTYNVISLVVLLNMLIAMMNNSYQLIADHADIEWKFARTKLWMSYFDEGGTLPPPFNIIPSPKSFLYLGNWFNNTFCPKRDPDGRRRRRNLRSFTERNADSLIQNQHYQEVIRNLVKRYVAAMIRNSKTHEGLTEENFKELKQDISSFRYEVLDLLGNRKHPRSFSTSSTELSQRDDNNDGSGGARAKSKSVSFNLGCKKKTCHGPPLIRTMPRSSGAQGKSKAESSSKRSFMGPSLKKLGLLFSKFNGHMSEPSSEPMYTISDGIVQQHCMWQDIRYSQMEKGKAEACSQSEINLSEVELGEVQGAAQSSECPLACSSSLHCASSICSSNSKLLDSSEDVFETWGEACDLLMHKWGDGQEEQVTTRL
modifications: full-length
notes: TRPC family member TRPC5, overexpressed from plasmid as comparison
B2: 389/510aa: TRPC6 fragment 389~510aa expressed from plasmid (protein, UniProt Q9Y210 389-510, looked up, fragment)
chain: SIWYENLSGLRQQTMAVKFLVVLAVAIGLPFLALIYWFAPCSKMGKIMRGPFMKFVAHAASFTIFLGLLVMNAADRFEGTKLLPNETSTDNAKQLFRMKTSCFSWMEMLIISWVIGMIWAEC
B3: 508/633aa: TRPC6 fragment 508~633aa expressed from plasmid (protein, UniProt Q9Y210 508-633, looked up, fragment)
chain: AECKEIWTQGPKEYLFELWNMLDFGMLAIFAASFIARFMAFWHASKAQSIIDANDTLKDLTKVTLGDNVKYYNLARIKWDPSDPQIISEGLYAIAVVLSFSRIAYILPANESFGPLQISLGRTVKD
B4: 389/930aa: TRPC6 fragment 389~930aa expressed from plasmid (protein, UniProt Q9Y210 389-930, looked up, fragment)
chain: SIWYENLSGLRQQTMAVKFLVVLAVAIGLPFLALIYWFAPCSKMGKIMRGPFMKFVAHAASFTIFLGLLVMNAADRFEGTKLLPNETSTDNAKQLFRMKTSCFSWMEMLIISWVIGMIWAECKEIWTQGPKEYLFELWNMLDFGMLAIFAASFIARFMAFWHASKAQSIIDANDTLKDLTKVTLGDNVKYYNLARIKWDPSDPQIISEGLYAIAVVLSFSRIAYILPANESFGPLQISLGRTVKDIFKFMVIFIMVFVAFMIGMFNLYSYYIGAKQNEAFTTVEESFKTLFWAIFGLSEVKSVVINYNHKFIENIGYVLYGVYNVTMVIVLLNMLIAMINSSFQEIEDDADVEWKFARAKLWFSYFEEGRTLPVPFNLVPSPKSLFYLLLKLKKWISELFQGHKKGFQEDAEMNKINEEKKLGILGSHEDLSKLSLDKKQVGHNKQPSIRSSEDFHLNSFNNPPRQYQKIMKRLIKRYVLQAQIDKESDEVNEGELKEIKQDISSLRYELLEEKSQNTEDLAELIRELGEKLSMEPNQEETN
B5: 725/930aa: TRPC6 fragment 725~930aa expressed from plasmid (protein, UniProt Q9Y210 725-930, looked up, fragment)
chain: AMINSSFQEIEDDADVEWKFARAKLWFSYFEEGRTLPVPFNLVPSPKSLFYLLLKLKKWISELFQGHKKGFQEDAEMNKINEEKKLGILGSHEDLSKLSLDKKQVGHNKQPSIRSSEDFHLNSFNNPPRQYQKIMKRLIKRYVLQAQIDKESDEVNEGELKEIKQDISSLRYELLEEKSQNTEDLAELIRELGEKLSMEPNQEETN
B6: 437/633aa: TRPC6 fragment 437~633aa expressed from plasmid (protein, UniProt Q9Y210 437-633, looked up, fragment)
chain: RGPFMKFVAHAASFTIFLGLLVMNAADRFEGTKLLPNETSTDNAKQLFRMKTSCFSWMEMLIISWVIGMIWAECKEIWTQGPKEYLFELWNMLDFGMLAIFAASFIARFMAFWHASKAQSIIDANDTLKDLTKVTLGDNVKYYNLARIKWDPSDPQIISEGLYAIAVVLSFSRIAYILPANESFGPLQISLGRTVKD
B7: 1/405aa: TRPC6 fragment 1~405aa expressed from plasmid (protein, UniProt Q9Y210 1-405, looked up, fragment)
chain: MSQSPAFGPRRGSSPRGAAGAAARRNESQDYLLMDSELGEDGCPQAPLPCYGYYPCFRGSDNRLAHRRQTVLREKGRRLANRGPAYMFSDRSTSLSIEEERFLDAAEYGNIPVVRKMLEECHSLNVNCVDYMGQNALQLAVANEHLEITELLLKKENLSRVGDALLLAISKGYVRIVEAILSHPAFAEGKRLATSPSQSELQQDDFYAYDEDGTRFSHDVTPIILAAHCQEYEIVHTLLRKGARIERPHDYFCKCNDCNQKQKHDSFSHSRSRINAYKGLASPAYLSLSSEDPVMTALELSNELAVLANIEKEFKNDYKKLSMQCKDFVVGLLDLCRNTEEVEAILNGDVETLQSGDHGRPNLSRLKLAIKYEVKKFVAHPNCQQQLLSIWYENLSGLRQQTMAV

Key:
[1] = system: Aβ levels in HEK293APP stable cells; test: Aβ ELISA, HEK293APP stable cells treated with TAT fusion peptides; format: cell-based; settings: TAT = 1
Description: (§1) Upon collecting the culture medium of the cells, Aβ40 and Aβ42 levels were quantified with sandwich ELISA kit, respectively (purchased from Invitrogen). The forebrain of the mouse was dissected and separated, and then homogenized with GuHCL. After that, total Aβ was determined by ELISA. For determining TBST(Tris-Buffered Saline and 1% TritonX100, 1% SDS, 1% DOC) soluble and insoluble Aβ, upon TBST homogenation and centrifugation of the forebrain of the mouse, the supernatant was determined for TBST soluble Aβ by ELISA, and the precipitate was determined for TBST insoluble Aβ by ELISA upon another GuHCL homogenate.
In this Example, the second transmembrane domain (487-507aa, TM2) was selected to fuse with cell penetrating peptide TAT and the fusion peptide TAT-TM2 and the mutant thereof TAT-TM2mut were obtained. Their effects on Aβ levels were examined in HEK293APP stable cells.
6.1.2 The Effect of Different Doses of Fusion Protein TAT-TM2 on Aβ Levels in HEK293APP Stable Cells were Determined.
To search for shorter fragments which could inhibit Aβ levels, TM2 was divided into N- and C-terminals and fused with TAT respectively. The effects of TAT-TM2-N, TAT-TM2-C and TAT-TM2-C mutant on Aβ levels in HEK293APP cells was examined.

[2] = system: Aβ levels in HEK293APP stable cells; test: Aβ ELISA of culture medium, HEK293APP stable cells transfected with TRPC plasmids; format: cell-based; settings: empty vector = 1
Description: as §1
HEK293APP stable cell line was cultured in DMEM culture solution (containing 200 ng/ml G418) with 10% FBS. C0S7C99 cells were cultured in MEM/F12 culture solution (containing 0.4 ug/ml hygromycin B) with 5% FBS, 1% NEAA, and 200 mM Glutamax. All the transfection was conducted by using Lipofectamin 2000 (Invitrogen).
HEK293 cells were inoculated to 60 mm dishes. When the density was close to 80%, 4 ug APP plasmid was transfected with Lipofectamine 2000. After 4 h, the culture medium was replaced and 400 ng/ml of G418 was added. Cells were passage 2 days later and G418 in the culture was maintained at 400 ng/ml. After 2-3 weeks, the cells not transected died gradually, and the survived cells were HEK293 cells expressing APP. Then, G418 was reduced to and maintained at 200 ng/ml.
TRPC6 or TRPC5 was overexpressed in HEK293APP stable cell lines respectively (Cells were passaged into 12-well plates till the densities were close to 80%. Each well was transfected with 1 ug plasmid using Lipofectamine 2000, and the Aβ levels in the medium were determined with ELISA after 48 hr).
Afterwards, HEK293APP stable cells were passaged in 12-well plate till the density approached 80%. Each well was transfected with lug plasmid using Lipofectamine 2000, and the Aβ levels in the culture medium were determined with ELISA after 48 h. The targeting fragment was primarily narrowed down to 437-507aa.
The […] of TRPC6 contains the first transmembrane regions(TM1), the first extracellular loop (Loop1), and the second transmembrane regions (TM2). To further narrow down the active domain, we constructed 3 variant plasmids, with TM2 region replacement by TM1 region (C6-mut1), reversal of TM2 sequence (C6-mut2) or point mutations within TM2 region(C6-mut3). Then HEK293APP stable cells were passaged in 12-well plate. When the density was close to 80%, every well was transfected with lug plasmid using Lipofectamine 2000, and the Aβ levels in the medium were determined with ELISA after 48 h. The active fragment was further narrowed down to 487-507aa.

[3] = Table 8, HEK293APP stable cells
[4] = Table 9, TAT-TM2 variants, HEK293APP cells
[5] = Table 1, HEK293APP stable cell, 1 ug plasmid, medium ELISA after 48 hr
[6] = Table 4, TRPC6 fragments, HEK293APP stable cells, 48 h

| Molecule | Aβ40 [1, 4] | Aβ42 [1, 4] | Aβ40 [2, 6] | Aβ42 [2, 6] | also measured |
| --- | --- | --- | --- | --- | --- |
| TAT-TM2-mut: mutated TAT-TM2 peptide, SEQ ID NO.:22, TSCFSWMEMLIISDDIGMDDAGRKKRRQRRRC (fusion protein) | – | – | – | – | Aβ40 [1, 3]: 0.89 ± 0.07; Aβ42 [1, 3]: 0.93 ± 0.09 |
| TAT-TM2-C-m1: TAT-TM2-C mutant, SEQ ID NO.:25, DDSWVIGMIWAGRKKRRQRRRC (fusion protein) | 0.54 ± 0.01 | 0.33 ± 0.07 | – | – | – |
| TAT-TM2-N: N-terminal of TM2 fused with TAT, SEQ ID NO.:23, TSCFSWMEMLGRKKRRQRRRC (fusion protein) | 0.97 ± 0.04 | 0.97 ± 0.04 | – | – | – |
| TAT-TM2-C-m3: TAT-TM2-C mutant, SEQ ID NO.:27, IISWVIGMDDAGRKKRRQRRRC (fusion protein) | 1.07 ± 0.11 | 1.07 ± 0.13 | – | – | – |
| TAT-TM2-C: C-terminal of TM2 fused with TAT, SEQ ID NO.:24, IISWVIGMIWAGRKKRRQRRRC (fusion protein) | 0.71 ± 0.07 | 0.72 ± 0.03 | – | – | – |
| TAT-TM2-C-m2: TAT-TM2-C mutant, SEQ ID NO.:26, IISDDIGMIWAGRKKRRQRRRC (fusion protein) | 1.09 ± 0.10 | 1.04 ± 0.15 | – | – | – |
| B1 | – | – | – | – | Aβ40 [2, 5]: 0.9900 ± 0.02548; Aβ42 [2, 5]: 0.9488 ± 0.02053 |
| B2 | – | – | 0.5959 ± 0.08036 | 0.6131 ± 0.1299 | – |
| B3 | – | – | 1.016 ± 0.04396 | 1.042 ± 0.02037 | – |
| B4 | – | – | 0.7699 ± 0.07728 | 0.7217 ± 0.0695 | – |
| B5 | – | – | 1.007 ± 0.07289 | 0.9822 ± 0.0099 | – |
| B6 | – | – | 0.8146 ± 0.07986 | 0.7096 ± 0.09708 | – |
| B7 | – | – | 0.9674 ± 0.06376 | 0.9822 ± 0.03662 | – |
